Source: patent US20120135923A1 (IPSEN PHARMA S A S, published 2012)
Bridge positions count the residues as written; N and C are the ends. Square brackets hold non-standard residues; d marks the D form. Ends that are not written are not given here. 2Nal = N[C@@H](Cc1ccc2ccccc2c1)C(=O)O; d2Nal = N[C@H](Cc1ccc2ccccc2c1)C(=O)O; Bta = N[C@@H](Cc1csc2ccccc12)C(=O)O; hPhe = N[C@@H](CCc1ccccc1)C(=O)O; Cha = N[C@@H](CC1CCCCC1)C(=O)O; dCha = N[C@H](CC1CCCCC1)C(=O)O; Chg = N[C@H](C(=O)O)C1CCCCC1; Pen = CC(C)(S)[C@H](N)C(=O)O; Nle = CCCC[C@H](N)C(=O)O; Ava = NCCCCC(=O)O; GABA = NCCCC(=O)O; βAla = NCCC(=O)O

B1: Ac-Nle-c(Cys-D-Ala-His-D-Phe-Arg-Trp-Gly-Cys)-NH2 (peptide)
peptide: Ac-[Nle]C[dA]H[dF]RWGC-NH2
modifications: disulfide 2-9
SMILES: CCCC[C@H](NC(C)=O)C(=O)N[C@H]1CSSC[C@@H](C(N)=O)NC(=O)CNC(=O)[C@H](Cc2c[nH]c3ccccc23)NC(=O)[C@H](CCCNC(=N)N)NC(=O)[C@@H](Cc2ccccc2)NC(=O)[C@H](Cc2c[nH]cn2)NC(=O)[C@@H](C)NC1=O
B2: Hydantoin(C(O)-(Nle-Gly))-c(Cys-Glu-His-D-Phe-Arg-Trp-Cys)-NH2 (peptide)
peptide: [Nle]GCEH[dF]RWC-NH2
modifications: disulfide 3-9; also: N-terminal hydantoin: C(O) bridges X1 N-terminal N and G2 backbone N, bridge at N via C(O), other end not in the chain
B3: Hydantoin(C(O)-(Arg-Gly))-c(Cys-D-Ala-His-D-2-Nal-Arg-Trp-Cys)-NH2 (peptide)
peptide: RGC[dA]H[d2Nal]RWC-NH2
modifications: disulfide 3-9; also: N-terminal hydantoin: C(O) bridges Arg1 N-alpha and Gly2 N, bridge at N via C(O), other end not in the chain
B4: Ac-c(Cys-Glu-His-D-2-Nal-Arg-2-Nal-Ala-Cys)-Pro-Pro-Arg-Asp-β-[…]NH2 (peptide)
peptide: Ac-CEH[d2Nal]R[2Nal]ACPPRD[βAla]RRRRRQRRR-NH2
modifications: disulfide 1-8
SMILES: CC(=O)N[C@H]1CSSC[C@@H](C(=O)N2CCC[C@H]2C(=O)N2CCC[C@H]2C(=O)N[C@@H](CCCNC(=N)N)C(=O)N[C@@H](CC(=O)O)C(=O)NCCC(=O)N[C@@H](CCCNC(=N)N)C(=O)N[C@@H](CCCNC(=N)N)C(=O)N[C@@H](CCCNC(=N)N)C(=O)N[C@@H](CCCNC(=N)N)C(=O)N[C@@H](CCCNC(=N)N)C(=O)N[C@@H](CCC(N)=O)C(=O)N[C@@H](CCCNC(=N)N)C(=O)N[C@@H](CCCNC(=N)N)C(=O)N[C@@H](CCCNC(=N)N)C(N)=O)NC(=O)[C@H](C)NC(=O)[C@H](Cc2ccc3ccccc3c2)NC(=O)[C@H](CCCNC(=N)N)NC(=O)[C@@H](Cc2ccc3ccccc3c2)NC(=O)[C@H](Cc2c[nH]cn2)NC(=O)[C@H](CCC(=O)O)NC1=O
B5: Hydantoin(C(O)-(Nle-Gly))-c(Cys-D-Ala-His-D-Phe-Arg-Trp-Pen)-NH2 (peptide)
peptide: [Nle]GC[dA]H[dF]RW[Pen]-NH2
modifications: disulfide 3-9; also: N-terminal hydantoin: C(O) bridges X1 N-terminal N and G2 backbone N, bridge at N via C(O), other end not in the chain
B6: c[Hydantoin(C(O)-(Asp-His))-D-2-Nal-Arg-Trp-Lys]-NH2 (peptide)
peptide: DH[d2Nal]RWK-NH2
modifications: lactam 1-6; also: hydantoin ring: N-terminal N of Asp1 and backbone N of His2 bridged by one C(O), bridge at N via C(O), other end not in the chain
B7: Ac-Cha-c(Asp-His-D-Phe-Arg-Trp-Gaba-Lys)-NH2 (peptide)
peptide: Ac-[Cha]DH[dF]RW[GABA]K-NH2
modifications: lactam 2-8
SMILES: CC(=O)N[C@@H](CC1CCCCC1)C(=O)N[C@H]1CC(=O)NCCCC[C@@H](C(N)=O)NC(=O)CCCNC(=O)[C@H](Cc2c[nH]c3ccccc23)NC(=O)[C@H](CCCNC(=N)N)NC(=O)[C@@H](Cc2ccccc2)NC(=O)[C@H](Cc2c[nH]cn2)NC1=O
B8: Ac-Nle-c(Cys-D-Cha-His-D-Phe-Arg-Trp-Cys)-NH2 (peptide)
peptide: Ac-[Nle]C[dCha]H[dF]RWC-NH2
modifications: disulfide 2-8
SMILES: CCCC[C@H](NC(C)=O)C(=O)N[C@H]1CSSC[C@@H](C(N)=O)NC(=O)[C@H](Cc2c[nH]c3ccccc23)NC(=O)[C@H](CCCNC(=N)N)NC(=O)[C@@H](Cc2ccccc2)NC(=O)[C@H](Cc2c[nH]cn2)NC(=O)[C@@H](CC2CCCCC2)NC1=O

Experiments:
hMC3-R = biological target: T1, hMC3-R (human, UniProt P41968 1-323); assay: competition with [125I]-NDP-α-MSH, CHO-K1 membranes
T1 construct: whole, on cells; Assayed as membranes of CHO-K1 cells expressing the receptor; also called hMC-R receptor subtype 3; melacortin-3 (MC3-R)
Method: (§1) Cellular membranes used for the in vitro receptor binding assays were obtained from transgenic CHO-K1 cells stably expressing hMC-R receptor subtypes 1, 3, 4 or 5. […] The pellets were resuspended in the same buffer and centrifuged at 50,000 g for 10 minutes at approximately 4° C. The washed pellets containing the cellular membranes were stored at approximately −80° C.
(§2) Competitive inhibition of [¹²⁵I](Tyr²)-(Nle⁴-D-Phe⁷)α-MSH ([¹²⁵I]-NDP-α-MSH, Amersham Biosciences®) binding was carried out in polypropylene 96 well plates. Cell membranes (1-10 μg protein/well) prepared as described above were incubated in 50 mM Tris-HCl at pH 7.4 containing 0.2% bovine serum albumin (BSA), 5 mM MgCl₂, 1 mM CaCl₂ and 0.1 mg/mL bacitracin, with increasing concentrations of the test compound and 0.1-0.3 nM […] for approximately 90-120 minutes at approximately 37° C. Bound [¹²⁵I]-NDP-α-MSH ligand was separated from free [¹²⁵I]-NDP-α-MSH by filtration through GF/C glass fiber filter plates (Unifilter®; Packard) presoaked with 0.1% (w/v) polyethylenimine (PEI), using a Packard Filtermate® harvester. Filters were washed three times with 50 mM Tris-HCl at pH 7.4 at a temperature of approximately 0-4° C. and then assayed for radioactivity using a Packard Topcount® scintillation counter. Binding data were analyzed by computer-assisted non-linear regression analysis (XL fit; IDBS).

hMC4-R = biological target: T2, hMC4-R (human, UniProt P32245 1-332); assay: as above
T2 construct: whole, on cells; Assayed as membranes of CHO-K1 cells expressing the receptor; also called hMC-R receptor subtype 4; melanocortin-4 (MC4-R)
Method: as §1, §2

hMC5-R = biological target: T3, hMC5-R (human, UniProt P33032 1-325); assay: as above
T3 construct: whole, on cells; Assayed as membranes of CHO-K1 cells expressing the receptor; also called hMC-R receptor subtype 5; melanocortin-5 receptor (MC5-R)
Method: as §1, §2

[1] = biological target: T4, human melanocortin receptor subtype 1 (hMC1-R) (human, UniProt Q01726 1-317); assay: [125I]-NDP-α-MSH competition, membranes
T4 construct: whole, on cells; membranes of CHO-K1 cells
Method: as §1, §2

[2] = biological target: T5, human melanocortin receptor subtype 5 (hMC5-R) (human, UniProt P33032 1-325); assay: [125I]-NDP-α-MSH competition, membranes
T5 construct: whole, on cells; membranes of CHO-K1 cells
Method: as §1, §2

hMC1-R = biological target: T6, hMC1-R (human, UniProt Q01726 1-317); assay: competition with [125I]-NDP-α-MSH, CHO-K1 membranes
T6 construct: whole, on cells; Assayed as membranes of CHO-K1 cells expressing the receptor; also called hMC-R receptor subtype 1; melanocyte-specific receptor (MC1-R)
Method: as §1, §2

[3] = biological target: T7, human melanocortin receptor subtype 4 (hMC4-R) (human, UniProt P32245 1-332); assay: [125I]-NDP-α-MSH competition, membranes
T7 construct: whole, on cells; membranes of CHO-K1 cells
Method: as §1, §2

T7 sequence (P32245 whole entry): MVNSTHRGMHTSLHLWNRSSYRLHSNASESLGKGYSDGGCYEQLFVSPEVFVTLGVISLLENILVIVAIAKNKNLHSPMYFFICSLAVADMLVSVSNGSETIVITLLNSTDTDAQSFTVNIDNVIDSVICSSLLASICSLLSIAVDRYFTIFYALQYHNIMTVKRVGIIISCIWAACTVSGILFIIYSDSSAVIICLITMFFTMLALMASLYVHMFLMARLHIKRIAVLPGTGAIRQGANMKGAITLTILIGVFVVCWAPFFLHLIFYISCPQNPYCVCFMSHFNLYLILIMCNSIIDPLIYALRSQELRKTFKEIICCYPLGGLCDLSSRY
T2 sequence (P32245 whole entry): as above
T1 sequence (P41968 whole entry): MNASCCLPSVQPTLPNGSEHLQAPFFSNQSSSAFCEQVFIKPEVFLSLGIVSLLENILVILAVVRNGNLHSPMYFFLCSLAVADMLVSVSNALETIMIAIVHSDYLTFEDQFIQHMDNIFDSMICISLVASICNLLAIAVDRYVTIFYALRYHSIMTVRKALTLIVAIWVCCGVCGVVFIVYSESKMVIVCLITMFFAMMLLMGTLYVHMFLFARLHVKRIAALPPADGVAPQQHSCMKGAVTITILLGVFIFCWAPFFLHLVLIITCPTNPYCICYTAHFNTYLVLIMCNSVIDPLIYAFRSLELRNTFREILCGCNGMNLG
T5 sequence (P33032 whole entry): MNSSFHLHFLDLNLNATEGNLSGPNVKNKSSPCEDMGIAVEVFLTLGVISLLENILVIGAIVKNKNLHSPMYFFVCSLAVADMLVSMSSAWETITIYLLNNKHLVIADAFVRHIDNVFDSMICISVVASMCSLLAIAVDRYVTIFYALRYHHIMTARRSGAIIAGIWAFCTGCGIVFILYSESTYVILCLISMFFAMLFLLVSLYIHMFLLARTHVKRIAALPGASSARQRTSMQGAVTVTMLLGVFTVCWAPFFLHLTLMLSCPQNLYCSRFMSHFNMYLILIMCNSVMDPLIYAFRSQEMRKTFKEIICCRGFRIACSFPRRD
T3 sequence (P33032 whole entry): as above
T6 sequence (Q01726 whole entry): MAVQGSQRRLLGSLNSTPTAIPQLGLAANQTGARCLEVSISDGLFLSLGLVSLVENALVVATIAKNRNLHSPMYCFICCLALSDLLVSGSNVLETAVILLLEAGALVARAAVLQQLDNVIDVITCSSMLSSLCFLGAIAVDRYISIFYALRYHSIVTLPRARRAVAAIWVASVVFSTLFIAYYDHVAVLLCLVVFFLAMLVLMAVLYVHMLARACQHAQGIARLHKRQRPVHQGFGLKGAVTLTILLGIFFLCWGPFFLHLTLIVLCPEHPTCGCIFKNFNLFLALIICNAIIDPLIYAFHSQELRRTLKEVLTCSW
T4 sequence (Q01726 whole entry): as above

Row | Binder | Ki (hMC3-R) [nM] | Ki (hMC4-R) [nM] | Ki (hMC5-R) [nM] | Ki [1] [nM] | Ki [2] [nM] | Ki (hMC1-R) [nM] | Ki [3] [nM]
1 | B1 | 149 | 3.01 | 339 | – | – | – | –
2 | B2 | – | – | – | 14.3 | 67.8 | – | –
3 | Ac-[Nle]DH[dF]RW[Ava]K-NH2 (lactam 2-8) [Ac-Nle-c(Asp-His-D-Phe-Arg-Trp-Apn-Lys)-NH2] | 300 | 11.1 | 431 | – | – | 0.999 | –
4 | Ac-[dR]DH[dF]RWAK-NH2 (lactam 2-8) [Ac-D-Arg-c(Asp-His-D-Phe-Arg-Trp-Ala-Lys)-NH2] | 45.5 | – | 493 | – | – | 0.79 | –
5 | Ac-CEH[d2Nal]R[2Nal]ACPPKD[βAla]GRKRRRQRRR-NH2 (disulfide 1-8) | – | – | – | 5.66 | 6.23 | – | 0.446
6 | Ac-[Nle]C[dI]H[dF]RWC-NH2 (disulfide 2-8) [Ac-Nle-c(Cys-D-Ile-His-D-Phe-Arg-Trp-Cys)-NH2] | – | 9 | 12.5 | – | – | 4.28 | –
7 | Ac-[Nle]C[dV]H[dF]RWC-NH2 (disulfide 2-8) [Ac-Nle-c(Cys-D-Val-His-D-Phe-Arg-Trp-Cys)-NH2] | 104 | – | 40 | – | – | 13 | –
8 | B3 | – | – | – | 11.9 | – | – | 0.195
9 | Ac-[Chg]DH[dF]RW[GABA]K-NH2 (lactam 2-8) [Ac-Chg-c(Asp-His-D-Phe-Arg-Trp-Gaba-Lys)-NH2] | 223 | 22.5 | 609 | – | – | 0.884 | –
10 | B4 | – | – | – | 2.63 | 11.6 | – | 0.0737
11 | Ac-CEH[d2Nal]R[Bta]ACPPKD[βAla]RRKRRQRRR-NH2 (disulfide 1-8) [Ac-c(Cys-Glu-His-D-2-Nal-Arg-Bal-Ala-Cys)-Pro-Pro-Lys-Asp-β-[…]NH2] | – | – | – | 3 | 15.5 | – | 0.442
12 | Ac-[Nle]DH[d2Nal]RWAK-NH2 (lactam 2-8) [Ac-Nle-c(Asp-His-D-2-Nal-Arg-Trp-Ala-Lys)-NH2] | – | – | – | – | – | 1.17 | –
13 | Ac-[hPhe]DH[dF]RW[GABA]K-NH2 (lactam 2-8) [Ac-hPhe-c(Asp-His-D-Phe-Arg-Trp-Gaba-Lys)-NH2] | 25.2 | 3.37 | 203 | – | – | – | –
14 | Ac-CEH[d2Nal]R[2Nal]ACPPKD[βAla]RRRRRQRRR-NH2 (disulfide 1-8) | – | – | – | 2.48 | 9.17 | – | –
15 | Ac-[Nle]DH[dF]RW[GABA]K-NH2 (lactam 2-8) [Ac-Nle-c(Asp-His-D-Phe-Arg-Trp-Gaba-Lys)-NH2] | 9.89 | 1.04 | 16.3 | – | – | 0.0506 | –
16 | Ac-CEH[dF]R[2Nal]AC-NH2 (disulfide 1-8) [Ac-c(Cys-Glu-His-D-Phe-Arg-2-Nal-Ala-Cys)-NH2] | – | 96.4 | 1460 | – | – | 262 | –
17 | B5 | – | – | – | 12.9 | 27.1 | – | 3.53
18 | RGCEH[dF]RWC-NH2 (disulfide 3-9; also: hydantoin ring from C(O) with Arg1-Gly2) [Hydantoin(C(O)-(Arg-Gly))-c(Cys-Glu-His-D-Phe-Arg-Trp-Cys)-NH2] | – | – | – | 8.59 | 7760 | – | 2.44
19 | GGCEH[dF]RWC-NH2 (disulfide 3-9; also: hydantoin ring from C(O) with Gly1-Gly2) [Hydantoin(C(O)-(Gly-Gly))-c(Cys-Glu-His-D-Phe-Arg-Trp-Cys)-NH2] | – | – | – | 11.9 | 73.9 | – | –
20 | GRCEH[dF]RWC-NH2 (disulfide 3-9; also: hydantoin ring from C(O) with Gly1-Arg2) [Hydantoin(C(O)-(Gly-Arg))-c(Cys-Glu-His-D-Phe-Arg-Trp-Cys)-NH2] | – | – | – | 5.68 | 4220 | – | 2.44
21 | B6 | – | – | – | 200 | – | – | –
22 | B7 | 11.8 | 1.49 | 110 | – | – | 0.106 | –
23 | B8 | 2.08 | 1.41 | – | – | – | 0.353 | –
24 | Ac-[Nle]D[dA]H[dF]R[Bta]AK-NH2 (lactam 2-9) [Ac-Nle-c(Asp-D-Ala-His-D-Phe-Arg-Bal-Ala-Lys)-NH2] | – | 21.3 | 11.1 | – | – | 4.89 | –
